The record followed here is publication PMC10786891, “Massively parallel profiling of RNA-targeting CRISPR-Cas13d”.

First the molecules themselves.
T1: EsCas13d, nuclease-dead (Eubacterium siraeum, UniProt B0MS50, R295A;H300A;R849A;H854A)
T1 sequence: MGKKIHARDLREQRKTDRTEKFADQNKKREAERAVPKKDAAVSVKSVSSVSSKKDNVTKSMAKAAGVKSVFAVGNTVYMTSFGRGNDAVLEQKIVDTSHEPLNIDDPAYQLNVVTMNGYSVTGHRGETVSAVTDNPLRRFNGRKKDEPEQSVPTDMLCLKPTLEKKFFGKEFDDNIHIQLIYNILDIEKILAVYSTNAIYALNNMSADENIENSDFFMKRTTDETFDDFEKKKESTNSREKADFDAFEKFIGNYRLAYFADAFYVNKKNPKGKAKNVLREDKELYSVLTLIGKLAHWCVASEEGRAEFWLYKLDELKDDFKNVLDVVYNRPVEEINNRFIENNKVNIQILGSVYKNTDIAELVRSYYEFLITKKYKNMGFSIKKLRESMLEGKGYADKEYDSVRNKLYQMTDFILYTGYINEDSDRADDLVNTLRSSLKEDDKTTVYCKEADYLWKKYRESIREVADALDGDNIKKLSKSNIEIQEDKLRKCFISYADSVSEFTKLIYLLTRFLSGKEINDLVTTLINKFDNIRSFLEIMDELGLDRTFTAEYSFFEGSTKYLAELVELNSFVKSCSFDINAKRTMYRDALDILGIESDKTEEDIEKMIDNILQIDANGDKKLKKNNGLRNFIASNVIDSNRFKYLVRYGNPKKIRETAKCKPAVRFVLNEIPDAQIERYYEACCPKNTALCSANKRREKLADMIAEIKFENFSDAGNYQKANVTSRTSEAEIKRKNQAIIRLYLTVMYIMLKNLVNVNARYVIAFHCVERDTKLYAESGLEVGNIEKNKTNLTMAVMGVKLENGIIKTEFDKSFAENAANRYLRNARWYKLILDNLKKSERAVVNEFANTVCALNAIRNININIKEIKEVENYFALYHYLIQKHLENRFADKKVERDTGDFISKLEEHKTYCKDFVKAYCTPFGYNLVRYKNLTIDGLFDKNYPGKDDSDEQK

B1: target 1 insC 3' of 9,insA 3' of 2 (mixed)
RNA 1: CACCCGUGCAAAAAUGCAGGGGUCUAAAACUGAGCGGAUAACCUCUCUAUGG
RNA 2: GGGAAUGGAUCCACAUCUACGAAUUCGUACCAUAGAGAGGUUACUCCGCUCAACCGAGAUCGGAAGAGCACACGU
B2: target 1 insC 3' of 9,insC 3' of 1 (mixed)
RNA 1: CACCCGUGCAAAAAUGCAGGGGUCUAAAACUGAGCGGAUAACCUCUCUAUGG
RNA 2: GGGAAUGGAUCCACAUCUACGAAUUCGUACCAUAGAGAGGUUACUCCGCUCACCCGAGAUCGGAAGAGCACACGU
B3: target 2 MT 5'PFS GUG 3'PFS AAA (mixed)
RNA 1: CACCCGUGCAAAAUUGCAGGGGUCUAAAACCUUCUCCAAAUUGUUUCAUCCU
RNA 2: GGGAAUGGAUCCACAUCUACGAAUUCGUGAGGAUGAAACAAUUUGGAGAAGAAAAGAUCGGAAGAGCACACGU
B4: target 2 MT 5'PFS AAC 3'PFS UGU (mixed)
RNA 1: CACCCGUGCAAAAUUGCAGGGGUCUAAAACCUUCUCCAAAUUGUUUCAUCCU
RNA 2: GGGAAUGGAUCCACAUCUACGAAUUCAACAGGAUGAAACAAUUUGGAGAAGUGUAGAUCGGAAGAGCACACGU
B5: target 2 MT 5'PFS UUG 3'PFS CUC (mixed)
RNA 1: CACCCGUGCAAAAUUGCAGGGGUCUAAAACCUUCUCCAAAUUGUUUCAUCCU
RNA 2: GGGAAUGGAUCCACAUCUACGAAUUCUUGAGGAUGAAACAAUUUGGAGAAGCUCAGAUCGGAAGAGCACACGU
B6: target 2 MT 5'PFS GUG 3'PFS AAG (mixed)
RNA 1: CACCCGUGCAAAAUUGCAGGGGUCUAAAACCUUCUCCAAAUUGUUUCAUCCU
RNA 2: GGGAAUGGAUCCACAUCUACGAAUUCGUGAGGAUGAAACAAUUUGGAGAAGAAGAGAUCGGAAGAGCACACGU
B7: target 2 MT 5'PFS AUU 3'PFS AGC (mixed)
RNA 1: CACCCGUGCAAAAUUGCAGGGGUCUAAAACCUUCUCCAAAUUGUUUCAUCCU
RNA 2: GGGAAUGGAUCCACAUCUACGAAUUCAUUAGGAUGAAACAAUUUGGAGAAGAGCAGAUCGGAAGAGCACACGU
B8: target 2 MT 5'PFS AUU 3'PFS AGA (mixed)
RNA 1: CACCCGUGCAAAAUUGCAGGGGUCUAAAACCUUCUCCAAAUUGUUUCAUCCU
RNA 2: GGGAAUGGAUCCACAUCUACGAAUUCAUUAGGAUGAAACAAUUUGGAGAAGAGAAGAUCGGAAGAGCACACGU
B9: target 2 MT 5'PFS AGA 3'PFS CCA (mixed)
RNA 1: CACCCGUGCAAAAUUGCAGGGGUCUAAAACCUUCUCCAAAUUGUUUCAUCCU
RNA 2: GGGAAUGGAUCCACAUCUACGAAUUCAGAAGGAUGAAACAAUUUGGAGAAGCCAAGAUCGGAAGAGCACACGU
B10: target 2 MT 5'PFS ACG 3'PFS UAG (mixed)
RNA 1: CACCCGUGCAAAAUUGCAGGGGUCUAAAACCUUCUCCAAAUUGUUUCAUCCU
RNA 2: GGGAAUGGAUCCACAUCUACGAAUUCACGAGGAUGAAACAAUUUGGAGAAGUAGAGAUCGGAAGAGCACACGU
B11: target 2 MT 5'PFS AGA 3'PFS CCG (mixed)
RNA 1: CACCCGUGCAAAAUUGCAGGGGUCUAAAACCUUCUCCAAAUUGUUUCAUCCU
RNA 2: GGGAAUGGAUCCACAUCUACGAAUUCAGAAGGAUGAAACAAUUUGGAGAAGCCGAGAUCGGAAGAGCACACGU
B12: target 2 MT 5'PFS AGU 3'PFS AAG (mixed)
RNA 1: CACCCGUGCAAAAUUGCAGGGGUCUAAAACCUUCUCCAAAUUGUUUCAUCCU
RNA 2: GGGAAUGGAUCCACAUCUACGAAUUCAGUAGGAUGAAACAAUUUGGAGAAGAAGAGAUCGGAAGAGCACACGU
B13: target 2 MT 5'PFS AUU 3'PFS AGG (mixed)
RNA 1: CACCCGUGCAAAAUUGCAGGGGUCUAAAACCUUCUCCAAAUUGUUUCAUCCU
RNA 2: GGGAAUGGAUCCACAUCUACGAAUUCAUUAGGAUGAAACAAUUUGGAGAAGAGGAGAUCGGAAGAGCACACGU
B14: target 2 MT 5'PFS UAA 3'PFS UAU (mixed)
RNA 1: CACCCGUGCAAAAUUGCAGGGGUCUAAAACCUUCUCCAAAUUGUUUCAUCCU
RNA 2: GGGAAUGGAUCCACAUCUACGAAUUCUAAAGGAUGAAACAAUUUGGAGAAGUAUAGAUCGGAAGAGCACACGU
B15: target 2 MT 5'PFS AGU 3'PFS AAU (mixed)
RNA 1: CACCCGUGCAAAAUUGCAGGGGUCUAAAACCUUCUCCAAAUUGUUUCAUCCU
RNA 2: GGGAAUGGAUCCACAUCUACGAAUUCAGUAGGAUGAAACAAUUUGGAGAAGAAUAGAUCGGAAGAGCACACGU
B16: target 2 MT 5'PFS GAC 3'PFS UUA (mixed)
RNA 1: CACCCGUGCAAAAUUGCAGGGGUCUAAAACCUUCUCCAAAUUGUUUCAUCCU
RNA 2: GGGAAUGGAUCCACAUCUACGAAUUCGACAGGAUGAAACAAUUUGGAGAAGUUAAGAUCGGAAGAGCACACGU
B17: target 2 MT 5'PFS UAA 3'PFS UAC (mixed)
RNA 1: CACCCGUGCAAAAUUGCAGGGGUCUAAAACCUUCUCCAAAUUGUUUCAUCCU
RNA 2: GGGAAUGGAUCCACAUCUACGAAUUCUAAAGGAUGAAACAAUUUGGAGAAGUACAGAUCGGAAGAGCACACGU
B18: target 2 MT 5'PFS UAA 3'PFS UAA (mixed)
RNA 1: CACCCGUGCAAAAUUGCAGGGGUCUAAAACCUUCUCCAAAUUGUUUCAUCCU
RNA 2: GGGAAUGGAUCCACAUCUACGAAUUCUAAAGGAUGAAACAAUUUGGAGAAGUAAAGAUCGGAAGAGCACACGU
B19: target 2 MT 5'PFS AGG 3'PFS UAA (mixed)
RNA 1: CACCCGUGCAAAAUUGCAGGGGUCUAAAACCUUCUCCAAAUUGUUUCAUCCU
RNA 2: GGGAAUGGAUCCACAUCUACGAAUUCAGGAGGAUGAAACAAUUUGGAGAAGUAAAGAUCGGAAGAGCACACGU
B20: target 2 MT 5'PFS GAC 3'PFS UUG (mixed)
RNA 1: CACCCGUGCAAAAUUGCAGGGGUCUAAAACCUUCUCCAAAUUGUUUCAUCCU
RNA 2: GGGAAUGGAUCCACAUCUACGAAUUCGACAGGAUGAAACAAUUUGGAGAAGUUGAGAUCGGAAGAGCACACGU
B21: target 2 MT 5'PFS GAG 3'PFS CCU (mixed)
RNA 1: CACCCGUGCAAAAUUGCAGGGGUCUAAAACCUUCUCCAAAUUGUUUCAUCCU
RNA 2: GGGAAUGGAUCCACAUCUACGAAUUCGAGAGGAUGAAACAAUUUGGAGAAGCCUAGAUCGGAAGAGCACACGU
B22: target 2 MT 5'PFS GAC 3'PFS UUC (mixed)
RNA 1: CACCCGUGCAAAAUUGCAGGGGUCUAAAACCUUCUCCAAAUUGUUUCAUCCU
RNA 2: GGGAAUGGAUCCACAUCUACGAAUUCGACAGGAUGAAACAAUUUGGAGAAGUUCAGAUCGGAAGAGCACACGU
B23: target 2 MT 5'PFS GCC 3'PFS AUG (mixed)
RNA 1: CACCCGUGCAAAAUUGCAGGGGUCUAAAACCUUCUCCAAAUUGUUUCAUCCU
RNA 2: GGGAAUGGAUCCACAUCUACGAAUUCGCCAGGAUGAAACAAUUUGGAGAAGAUGAGAUCGGAAGAGCACACGU
B24: target 2 MT 5'PFS GCC 3'PFS AUA (mixed)
RNA 1: CACCCGUGCAAAAUUGCAGGGGUCUAAAACCUUCUCCAAAUUGUUUCAUCCU
RNA 2: GGGAAUGGAUCCACAUCUACGAAUUCGCCAGGAUGAAACAAUUUGGAGAAGAUAAGAUCGGAAGAGCACACGU
B25: target 2 MT 5'PFS AAA 3'PFS AAA (mixed)
RNA 1: CACCCGUGCAAAAUUGCAGGGGUCUAAAACCUUCUCCAAAUUGUUUCAUCCU
RNA 2: GGGAAUGGAUCCACAUCUACGAAUUCAAAAGGAUGAAACAAUUUGGAGAAGAAAAGAUCGGAAGAGCACACGU
B26: target 2 MT 5'PFS UUG 3'PFS UUC (mixed)
RNA 1: CACCCGUGCAAAAUUGCAGGGGUCUAAAACCUUCUCCAAAUUGUUUCAUCCU
RNA 2: GGGAAUGGAUCCACAUCUACGAAUUCUUGAGGAUGAAACAAUUUGGAGAAGUUCAGAUCGGAAGAGCACACGU
B27: target 2 MT 5'PFS GCC 3'PFS AUC (mixed)
RNA 1: CACCCGUGCAAAAUUGCAGGGGUCUAAAACCUUCUCCAAAUUGUUUCAUCCU
RNA 2: GGGAAUGGAUCCACAUCUACGAAUUCGCCAGGAUGAAACAAUUUGGAGAAGAUCAGAUCGGAAGAGCACACGU

The series has as its target T1, EsCas13d, nuclease-dead. The series can be described thus: crRNA (strand 1, pre-loaded); Mg2+; 40 mM Tris-HCl pH 7.5, 150 mM NaCl, 6 mM MgCl2, 1 mM DTT, 0.1% Tween-20, 0.2 mg/ml BSA; 25 C; 10 min per concentration, then washed. To be noted: tags: His6-TwinStrep-SUMO cleaved; N-terminal SNAP kept (SNAP-Surface 488); label: 3' end held by stalled T7 RNA polymerase.
In general, Kd refers to a measure of binding affinity in units of concentration. Molecule B1 registered a Kd of 12.3 ± 0.7 nM.
Under B2 stands 9.4 ± 0.6 nM.
The value for B3 was 9.7 ± 1.4 nM; that for B4 was 6.9 ± 1.2 nM.
In turn, B5 yielded a Kd of 37 ± 8 nM. This Kd is about 5.4-fold higher than that of the molecule before.
The value for B6 was 12.4 ± 1.8 nM; that for B7 was 6.4 ± 0.8 nM; that for B8 was 5.4 ± 0.8 nM.
The value for B9 was around 24 nM.
B10 yielded a Kd of 4.6 ± 1.1 nM.
Under B11 stands 8.3 ± 1.1 nM; under B12, 11 ± 2.4 nM; under B13, 13 ± 2.9 nM.
The value for B14 was 3.7 ± 1 nM; that for B15 was 7.6 ± 1 nM; that for B16 was 14.3 ± 3 nM.
Under B17 stands 7.1 ± 1.6 nM; under B18, 4.8 ± 1.3 nM; under B19, 4.9 ± 1.1 nM.
In the case of B20, the Kd was 15 ± 4 nM. Compared with the last molecule, the Kd is about 3.1-fold higher.
Take B21: the Kd was around 130 nM.
The value for B22 was 33 ± 12 nM; that for B23 was 12.9 ± 1.1 nM.
Under B24 stands 10.4 ± 1.8 nM; under B25, 4.9 ± 1.3 nM.
The value for B26 was 64 ± 20 nM; that for B27 was 12.7 ± 1.1 nM.
